Data on 26 variants can be found in PMC5538626 (2017).

B1: PLEKHM1‐LIR WT peptide (EDEWVNVQY), biotinylated [modified: biotin; biotin] [not stated] / 6xHis‐tagged LC3C [human] (parent complex)
chain 1: EDEWVNVQY
chain 2: MPPPQKIPSVRPFKQRKSLAIRQEEVAGIRAKFPNKIPVVVERYPRETFLPPLDKTKFLVPQELTMTQFLSIIRSRMVLRATEAFYLLVNNKSLVSMSATMAEIYRDYKDEDGFVYMTYASQETFG
B2: PLEKHM1‐LIR WT peptide (EDEWVNVQY), biotinylated [modified: biotin; biotin] [not stated] / 6xHis‐tagged GABARAP‐L1 [human] (parent complex)
chain 1: EDEWVNVQY
chain 2: not shown
B3: PLEKHM1‐LIR WT peptide (EDEWVNVQY), biotinylated [modified: biotin; biotin] [not stated] / 6xHis‐tagged LC3B [human] (parent complex)
chain 1: EDEWVNVQY
chain 2: not shown

The first assay covers variants of B1. Put plainly: peptide array (biotinylated LIR peptide, 6xHis-mATG8, absorbance); n = 3; read off a plot.
In the case of chain 1 W4Y, the percent of parent was about 25 % Mutant LIR/WT.

For the variant chain 1 W4F, the percent of parent is about 50 % Mutant LIR/WT.

Regarding chain 1 V7I, the percent of parent is about 110 % Mutant LIR/WT.

In the case of chain 1 V7L, the percent of parent is about 85 % Mutant LIR/WT.

For the variant chain 1 W4A, chain 1 V7A, the percent of parent was about 5 % Mutant LIR/WT.

A further assay covers variants of B1. Put plainly: peptide array ELISA (biotinylated peptide on streptavidin plate, 6xHis-mATG8, anti-His-HRP, TMB); absorbance at 450 nm; n = 4; read off a plot. (An ELISA detects its analyte on a solid surface through an enzyme-linked reagent.)
For chain 1 V7A, the screen value is about 1.4 fold over mutLIR.

Turning to chain 1 N6A, the screen value was about 1.7 fold over mutLIR.

In the case of chain 1 V5A, chain 1 N6A, the screen value was about 1.2 fold over mutLIR.

As to chain 1 V5A, the screen value is about 1.5 fold over mutLIR.

Variants of B2 are the subject of the next assay. Put plainly: peptide array (biotinylated LIR peptide, 6xHis-mATG8, absorbance); n = 3; read off a plot.
Consider chain 1 W4Y, for which the percent of parent was about 55 % Mutant LIR/WT.

As to chain 1 W4F, the percent of parent was about 60 % Mutant LIR/WT.

For the variant chain 1 W4A, chain 1 V7A, the percent of parent is about 7 % Mutant LIR/WT.

Take chain 1 V7L: the percent of parent is about 110 % Mutant LIR/WT.

Regarding chain 1 V7I, the percent of parent was about 95 % Mutant LIR/WT.

Variants of B2 are the subject of another assay. As to the kind of experiment: peptide array ELISA (biotinylated peptide on streptavidin plate, 6xHis-mATG8, anti-His-HRP, TMB); absorbance at 450 nm; n = 4; read off a plot.
As to chain 1 V5A, chain 1 N6A, the screen value is about 1.3 fold over mutLIR.

Consider chain 1 N6A, for which the screen value was about 9.9 fold over mutLIR.

For chain 1 V7A, the screen value was about 2 fold over mutLIR.

For chain 1 V5A, the screen value is about 1.7 fold over mutLIR.

The variants in another assay derive from B3. Put plainly: peptide array (biotinylated LIR peptide, 6xHis-mATG8, absorbance); n = 5; read off a plot.
As for chain 1 V5C, chain 1 N6V, chain 1 V7L, the ratio to parent is about 2.3.

Consider chain 1 V5C, chain 1 N6I, chain 1 V7L, for which the ratio to parent was about 2.4.

Take chain 1 W4A, chain 1 V7A: the ratio to parent is about 0.17.

chain 1 V5C, chain 1 N6F, chain 1 V7L: the ratio to parent was about 1.9.

A further assay covers variants of B3. As to the kind of experiment: peptide array (biotinylated LIR peptide, 6xHis-mATG8, absorbance); n = 3; read off a plot.
For chain 1 W4A, chain 1 V7A, the percent of parent was about 8 % Mutant LIR/WT.

As to chain 1 W4Y, the percent of parent was about 10 % Mutant LIR/WT.

In the case of chain 1 W4F, the percent of parent is about 8 % Mutant LIR/WT.

Regarding chain 1 V7I, the percent of parent was about 200 % Mutant LIR/WT.

chain 1 V7L: the percent of parent is about 250 % Mutant LIR/WT.
